Laboratory results reported in patent US20190376034A1.

Target: immune complexes (Dylight 650-labeled BSA + polyclonal rabbit anti-BSA IgG + human serum complement) (bovine) (UniProt P02769)
Assay: cell-based or functional assay

Chain of UniProt P02769 (P02769 25-607, one chain of several): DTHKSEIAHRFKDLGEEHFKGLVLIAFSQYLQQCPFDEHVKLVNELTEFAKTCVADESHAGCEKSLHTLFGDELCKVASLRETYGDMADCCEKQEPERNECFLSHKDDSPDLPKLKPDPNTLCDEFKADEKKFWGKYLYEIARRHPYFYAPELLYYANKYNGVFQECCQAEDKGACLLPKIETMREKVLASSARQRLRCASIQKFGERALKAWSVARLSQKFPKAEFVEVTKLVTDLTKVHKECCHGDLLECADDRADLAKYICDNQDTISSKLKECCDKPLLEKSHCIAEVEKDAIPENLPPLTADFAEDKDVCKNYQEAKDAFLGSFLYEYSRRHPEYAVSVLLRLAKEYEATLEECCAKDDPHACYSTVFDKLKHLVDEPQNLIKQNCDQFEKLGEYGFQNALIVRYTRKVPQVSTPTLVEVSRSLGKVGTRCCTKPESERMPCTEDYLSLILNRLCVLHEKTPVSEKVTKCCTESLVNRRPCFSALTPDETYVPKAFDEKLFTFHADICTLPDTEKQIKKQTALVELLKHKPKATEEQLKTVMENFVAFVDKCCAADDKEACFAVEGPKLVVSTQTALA

“complement receptor 1 (CR1) exogenously over-expressed on the surface of cultured erythroid cells (from UniProt P17927 42-2039)” showed an uptake of fluorescent immune complexes by activated U937 macrophages in co-culture (flow cytometry) of 2 fold.
